# Results published in PMC3277882, “Structure and Kinetic Stability of the p63 Tetramerization Domain” (Journal of Molecular Biology, 2012).
# B1: human p73 full-length tetramerization domain variant, p73(351–399) (domain or fragment)
# chain: GSDEDTYYLQVRGRENFEILMKLKESLELMELVPQPLVDSYRQQQQLLQRP
# notes: Gly-Ser dipeptide left at the N terminus by the cloning strategy (after thrombin cleavage); human p73 tetramerization domain, residues 351-399; In the subunit exchange experiment an unlabeled (12C-14N) and a uniformly 13C-15N labeled sample of the same construct were mixed; also called p73 tetramerization domain; not shown: His6, N-terminal, cleaved; lipoyl domain, N-terminal, cleaved
# Experiments:
# [1] = molecular target: human p63 full-length tetramerization domain variant, p63(356–411) (human); assay: native MS; nESI-MS of subunit exchange: equal amounts of 12C-14N and 13C-15N protein mixed, 10 μM each (monomer concentration), 500 mM ammonium acetate (pH 6.9), 37 °C; half-life of tetramer dissociation from kinetic modeling
# [2] = molecular target: human p63 tetramerization domain, p63(359–402) (human); assay: crystal structure; p63(359–402), sitting drop at 17 °C, 10% polyethylene glycol 8000, 0.1 M Hepes (pH 7.5), 0.2 M Ca acetate; space group P422, one monomer in the asymmetric unit; 2.15 Å
# [3] = molecular target: human p63 tetramerization domain lacking the H2 helix, p63(359–388) (human); assay: crystal structure; p63(359–388) SeMet, sitting drop at 17 °C, 30% polyethylene glycol 400, 0.1 M Hepes (pH 7.5), 0.2 M Mg chloride; space group P1, one tetramer in the asymmetric unit; 1.9 Å
# [4] = molecular target: the molecule itself; assay: native MS; nESI-MS of subunit exchange: equal amounts of 12C-14N and 13C-15N protein mixed, 10 μM each (monomer concentration), 500 mM ammonium acetate (pH 6.9), 37 °C; half-life of tetramer dissociation from kinetic modeling
# [5] = molecular target: the molecule itself; assay: as above; remark: listed apart in the source
molecule,measurement,setting,value
"human p63 full-length tetramerization domain variant, p63(356–411) (domain or fragment)","half-life of the tetramer, t1/2",[1],7 min
same,stoichiometry N,[1],4
"human p63 tetramerization domain, p63(359–402) (domain or fragment)",stoichiometry N,[2],4
"human p63 tetramerization domain lacking the H2 helix, p63(359–388) (domain or fragment)",stoichiometry N,[3],4
B1,stoichiometry N,[4],4
same,"half-life of the tetramer, t1/2",[5],77 ± 5 min
